Experimental data: the RNAGym collection of RNA variant scans (doi:10.7554/elife.80360)

B1: Hairpin Ribozyme (parent)
chain: GUCCUCUUUCACGUGCGCGUGAAAGAGAGAAGUGAACCAGAGAAACACACGUUGUGGUAUAUUACCUGGUA

Variants of: B1
Experiment: self-cleavage, relative activity (ratio to wild type); higher = more cleavage; co-transcriptional

Row | Variant | self-cleavage
1 | GUCCACUUUCACUUGCGCGUGAAAGAGAGAAGUGAACCAGAGAAACACACGUUGUGGUAUAUUACCUGGUA [U5A G13U] | 0.302
2 | GUCCACUUUCACCUGCGCGUGAAAGAGAGAAGUGAACCAGAGAAACACACGUUGUGGUAUAUUACCUGGUA [U5A G13C] | 0.19
3 | GUCCACUUUCAAGUGCGCGUGAAAGAGAGAAGUGAACCAGAGAAACACACGUUGUGGUAUAUUACCUGGUA [U5A C12A] | 0.273
4 | GUCCACUUUCAGGUGCGCGUGAAAGAGAGAAGUGAACCAGAGAAACACACGUUGUGGUAUAUUACCUGGUA [U5A C12G] | 0.266
5 | GUCCCCUUUCCCGUGCGCGUGAAAGAGAGAAGUGAACCAGAGAAACACACGUUGUGGUAUAUUACCUGGUA [U5C A11C] | 0.764
6 | GUCCACUUUCACGUGCGCGUGAAAGAGAGAAGUGAACCAGAGAAAAACACGUUGUGGUAUAUUACCUGGUA [U5A C46A] | 0.16
7 | GUCCACUUUCACGUGCGCGUGAAAGAGAGAAGUGAACCAGAGAAAUACACGUUGUGGUAUAUUACCUGGUA [U5A C46U] | 0.0644
8 | GUCCCGUUUCACGUGCGCGUGAAAGAGAGAAGUGAACCAGAGAAACACACGUUGUGGUAUAUUACCUGGUA [U5C C6G] | 0.138
9 | GUCCCCUUUCACGUGCGCGUGAAAGAGAGAAGUGAACCAGAGGAACACACGUUGUGGUAUAUUACCUGGUA [U5C A43G] | 0.201
10 | GUCCACUUUCACGUGCGCGUGAAAGAGAGAAGUGAACCAGAGAAACACAUGUUGUGGUAUAUUACCUGGUA [U5A C50U] | 0.291
11 | GUCCCCUUUCACGUGCGCGUGAGAGAGAGAAGUGAACCAGAGAAACACACGUUGUGGUAUAUUACCUGGUA [U5C A23G] | 0.683
12 | GUCCCCUUUCACGUGCGCGUGACAGAGAGAAGUGAACCAGAGAAACACACGUUGUGGUAUAUUACCUGGUA [U5C A23C] | 0.692
13 | GUCCACUUUCACGUGCGCGUGAAAGAGAGAAGUGAACAAGAGAAACACACGUUGUGGUAUAUUACCUGGUA [U5A C38A] | 0.142
14 | GUCCCCUUUCACGUGCGCGUGAAAGAGAGAAGUGUACCAGAGAAACACACGUUGUGGUAUAUUACCUGGUA [U5C A35U] | 0.0604
15 | GUCCCCUUUCACGUGCGCGUGAAAGAGAGAAGUGCACCAGAGAAACACACGUUGUGGUAUAUUACCUGGUA [U5C A35C] | 0.732
16 | GUCCACUUUCACGUGCGCGUGAAAGAGAGAAGUGAACCAGAGAAACACACGUUGUGGUAAAUUACCUGGUA [U5A U60A] | 0.477
17 | GUCCACUUUCACGUGCGCGUGAAAGAGAGAAGUGAACCAGAGAAACACACGUUGUGGUACAUUACCUGGUA [U5A U60C] | 0.709
18 | GUCCCCUUUCACGUGCGCGUGAAAGAGAGAAGUGAACCAGAGAAACCCACGUUGUGGUAUAUUACCUGGUA [U5C A47C] | 0.208
19 | GUCCCCUUUCACGUGCGCGUGAAAGAGAGAAGUGAACCAGAGAAACUCACGUUGUGGUAUAUUACCUGGUA [U5C A47U] | 0.166
20 | GUCCACUUUCACGUGCGCGUGAAAGAGAGAAGUGAACCAGAGAAACACACGUUGUGGUAUAUUUCCUGGUA [U5A A64U] | 0.133
21 | GUCCAAUUUCACGUGCGCGUGAAAGAGAGAAGUGAACCAGAGAAACACACGUUGUGGUAUAUUACCUGGUA [U5A C6A] | 0.337
22 | GUCCACUUUCACGUGCGCGUGAAAGAGAGAAGUGAACCAGAGAAACAGACGUUGUGGUAUAUUACCUGGUA [U5A C48G] | 0.0819
23 | GUCCACUUUCACGUGCACGUGAAAGAGAGAAGUGAACCAGAGAAACACACGUUGUGGUAUAUUACCUGGUA [U5A G17A] | 0.435
24 | GUCCACUUUCACGUGCCCGUGAAAGAGAGAAGUGAACCAGAGAAACACACGUUGUGGUAUAUUACCUGGUA [U5A G17C] | 0.204
25 | GUCCACUUUCACGUGCGCGUGAAAGAGAGAAGUGAACCAGAAAAACACACGUUGUGGUAUAUUACCUGGUA [U5A G42A] | 0.217
26 | GUCCACUAUCACGUGCGCGUGAAAGAGAGAAGUGAACCAGAGAAACACACGUUGUGGUAUAUUACCUGGUA [U5A U8A] | 0.285

Row | Variant | self-cleavage
27 | GUCCACUCUCACGUGCGCGUGAAAGAGAGAAGUGAACCAGAGAAACACACGUUGUGGUAUAUUACCUGGUA [U5A U8C] | 0.141
28 | GUCCACUGUCACGUGCGCGUGAAAGAGAGAAGUGAACCAGAGAAACACACGUUGUGGUAUAUUACCUGGUA [U5A U8G] | 0.261
29 | GUCCCCUUUCAUGUGCGCGUGAAAGAGAGAAGUGAACCAGAGAAACACACGUUGUGGUAUAUUACCUGGUA [U5C C12U] | 0.772
30 | GUCCCCUUUCACGUGCGCGUGAAAGAGAGAAGUGAACCAGGGAAACACACGUUGUGGUAUAUUACCUGGUA [U5C A41G] | 0.569
31 | GUCCCCUUUCACGUGCGCGUGAAAGAGAGAAGUGAACCAGUGAAACACACGUUGUGGUAUAUUACCUGGUA [U5C A41U] | 1.06
32 | GUCCACUUUCACGUGCGCGUGAAAGAGAGAAGUGAACCAGAGAAACACACGUUGUGGUAUAGUACCUGGUA [U5A U62G] | 0.11
33 | GUCCACUUUCACGUACGCGUGAAAGAGAGAAGUGAACCAGAGAAACACACGUUGUGGUAUAUUACCUGGUA [U5A G15A] | 0.388
34 | GUCCACUUUCACGUUCGCGUGAAAGAGAGAAGUGAACCAGAGAAACACACGUUGUGGUAUAUUACCUGGUA [U5A G15U] | 0.495
35 | GUCCCCUUUCACGUGCGCGUGAAAGUGAGAAGUGAACCAGAGAAACACACGUUGUGGUAUAUUACCUGGUA [U5C A26U] | 0.505
36 | GUCCCCUUUCACGUGCGCGUGAAAGAGAGAAGUGAACCAGAGAAACACUCGUUGUGGUAUAUUACCUGGUA [U5C A49U] | 0.143
37 | GUCCACUUUCACGUGCGCGUGAAAGAGAGAAGUGAACCAGAGAAACACACGUUGUGGUAUAUUACCUUGUA [U5A G68U] | 0.154
38 | GUCCACUUUCACGUGCGCGUGAAAGAGAGAAGUGAACCAGAGAAACACACGUUGUGGUAUAUUACGUGGUA [U5A C66G] | 0.176
39 | GUCCACUUUCACGUGCGCGUGAAAGAGAGAAGUGAACCAGAGAAACACACGUUGUGGUAUAUUACUUGGUA [U5A C66U] | 0.153
40 | GUCCACUUUCACGUGCGCGUGAAAGAGAGAAGUGAAGCAGAGAAACACACGUUGUGGUAUAUUACCUGGUA [U5A C37G] | 0.18
41 | GUCCCCUUUGACGUGCGCGUGAAAGAGAGAAGUGAACCAGAGAAACACACGUUGUGGUAUAUUACCUGGUA [U5C C10G] | 0.373
42 | GUCCCCUUUCACGUGCGCGUGAAAGAGAGAAGUGAACCGGAGAAACACACGUUGUGGUAUAUUACCUGGUA [U5C A39G] | 0.192
43 | GUCCCCUUUCACGUGCGCGUGAAAGAGAGAAGUGAACCAGAGAAACACACGUUGUGGUCUAUUACCUGGUA [U5C A59C] | 0.105
44 | GUCCACUUUUACGUGCGCGUGAAAGAGAGAAGUGAACCAGAGAAACACACGUUGUGGUAUAUUACCUGGUA [U5A C10U] | 0.333
45 | GUCCCCUUUCACGUGCGCGUGAAAGAGAGAAGUGAGCCAGAGAAACACACGUUGUGGUAUAUUACCUGGUA [U5C A36G] | 0.502
46 | GUCCCCUUUCACGUGCGCGUGAAAGAGAGAAGUGACCCAGAGAAACACACGUUGUGGUAUAUUACCUGGUA [U5C A36C] | 0.576
47 | GUCCACUUUCACGUGCGCGUGAAAGAGAGAAGUGAACCAGAGAAACACACAUUGUGGUAUAUUACCUGGUA [U5A G51A] | 0.393
48 | GUCCCCUUUCACGUGCGCGUGAACGAGAGAAGUGAACCAGAGAAACACACGUUGUGGUAUAUUACCUGGUA [U5C A24C] | 0.483
49 | GUCCCCUUUCACGUGCGCGUGAAGGAGAGAAGUGAACCAGAGAAACACACGUUGUGGUAUAUUACCUGGUA [U5C A24G] | 0.453
50 | GUCCACUUUCACGUGCGCGUGAAAGAGAGAAGCGAACCAGAGAAACACACGUUGUGGUAUAUUACCUGGUA [U5A U33C] | 0.0952
51 | GUCCCCUUUCACGUGCGAGUGAAAGAGAGAAGUGAACCAGAGAAACACACGUUGUGGUAUAUUACCUGGUA [U5C C18A] | 0.699
52 | GUCCCCUUUCACGUGCGGGUGAAAGAGAGAAGUGAACCAGAGAAACACACGUUGUGGUAUAUUACCUGGUA [U5C C18G] | 0.251

Row | Variant | self-cleavage
53 | GUCCACUUUCACGUGCGCGUGAAAGAGAGAAGUGAACCAGAGAAACACACGUUGUGUUAUAUUACCUGGUA [U5A G57U] | 0.102
54 | GUCCACUUUCACGCGCGCGUGAAAGAGAGAAGUGAACCAGAGAAACACACGUUGUGGUAUAUUACCUGGUA [U5A U14C] | 0.343
55 | GUCCACUUUCACGUGCGCGAGAAAGAGAGAAGUGAACCAGAGAAACACACGUUGUGGUAUAUUACCUGGUA [U5A U20A] | 0.315
56 | GUCCCCUUUCACGUGCGCGUGAAAGAGAGAAGUGAACCAGAGAAACACACGUUGUGGUAUAUUACCUGGUA [U5C] | 0.648
57 | GUCCACUUUCACGUGCGCGUGAAAGAUAGAAGUGAACCAGAGAAACACACGUUGUGGUAUAUUACCUGGUA [U5A G27U] | 0.116
58 | GUCCACUUUCACGUGCGCGUGAAAGACAGAAGUGAACCAGAGAAACACACGUUGUGGUAUAUUACCUGGUA [U5A G27C] | 0.187
59 | GUCCACUUUCACGUGCGCGUGAAAGAAAGAAGUGAACCAGAGAAACACACGUUGUGGUAUAUUACCUGGUA [U5A G27A] | 0.179
60 | GUCCACUUUCACGUGCGCGUGAAAGAGAGAAGUGAACCAUAGAAACACACGUUGUGGUAUAUUACCUGGUA [U5A G40U] | 0.101
61 | GUCCACUUUCACGUGGGCGUGAAAGAGAGAAGUGAACCAGAGAAACACACGUUGUGGUAUAUUACCUGGUA [U5A C16G] | 0.231
62 | GUCCACUUUCACGUGAGCGUGAAAGAGAGAAGUGAACCAGAGAAACACACGUUGUGGUAUAUUACCUGGUA [U5A C16A] | 0.281
63 | GUCCACUUUCACGUGUGCGUGAAAGAGAGAAGUGAACCAGAGAAACACACGUUGUGGUAUAUUACCUGGUA [U5A C16U] | 0.475
64 | GUCCCCUUUCACGUGCGCGUGAAAGAGAGAAGUGAACCAGAGAAACACACGUUGUGGUAUGUUACCUGGUA [U5C A61G] | 0.176
65 | GUCCCCUUUCACGUGCGCGUGAAAGAGAGAAGUGAACCAGAGAAACACACGUUGUGGUAUCUUACCUGGUA [U5C A61C] | 0.128
66 | GUCCACGUUCACGUGCGCGUGAAAGAGAGAAGUGAACCAGAGAAACACACGUUGUGGUAUAUUACCUGGUA [U5A U7G] | 0.253
67 | GUCCCCUUUCACGUGCGCGUGAAAGAGAGAAGUGAACCAGAGACACACACGUUGUGGUAUAUUACCUGGUA [U5C A44C] | 0.0386
68 | GUCCCCUUUCACGUGCGCGUGAAAGAGAGAAGUGAACCAGAGAAACACACGUUGUGGUAUAUUACCUGGUU [U5C A71U] | 0.564
69 | GUCCACUUUCACGUGCGCGUGAAAGAGAGAAGUGAACCAGAGAAACACACGUUGUGGUAUAUUACCUGGUC [U5A A71C] | 0.884
70 | GUCCACUUUCACGUGCGCGUGAAAGAGAGAAGUGAACCAGAGAAACACACGUUGCGGUAUAUUACCUGGUA [U5A U55C] | 0.157
71 | GUCCACUUUCACGUGCGCGUGAAAGAGAGAAAUGAACCAGAGAAACACACGUUGUGGUAUAUUACCUGGUA [U5A G32A] | 0.158
72 | GUCCACUUUCACGUGCGCGUGAAAGAGAGAAGUGAACCAGAGAAACACACGUUGUGGUAUAUAACCUGGUA [U5A U63A] | 0.206
73 | GUCCACUUUCACGUGCGCGUGAAAGAGAGAAGUGAACCAGAGAAACACACGUUGUGGUAUAUCACCUGGUA [U5A U63C] | 0.196
74 | GUCCACUUUCACGUGCGCGUGAAAGAGAGAAGUGAACCAGAGAAACACACGUAGUGGUAUAUUACCUGGUA [U5A U53A] | 0.221
75 | GUCCACUUUCACGUGCGCGUGAAAGAGAGAAGUGAACCAGAGAAACACACGUCGUGGUAUAUUACCUGGUA [U5A U53C] | 0.452
76 | GUCCACUUCCACGUGCGCGUGAAAGAGAGAAGUGAACCAGAGAAACACACGUUGUGGUAUAUUACCUGGUA [U5A U9C] | 0.179
